Reference: patent US20060110401A1, “Mixture of peptides from c and ns3 proteins of the hepatitis c virus and applications thereof” (priority 2002, published 2006)
No end group written: not given here.

Columns and labels:
[1] = biological target: HLA-DR4 (DRB1*0401) (human); experiment: competition binding; conditions: chains peptide; modification not given
[2] = biological target: HLA-DR15 (DRB1*1501) (human); experiment: competition binding; conditions: chains peptide; modification not given
[3] = biological target: HLA-DRB3 (DRB3*0101) (human); experiment: competition binding; conditions: chains peptide; modification not given
[4] = biological target: HLA-DR3 (DRB1*0301) (human); experiment: competition binding; conditions: chains peptide; modification not given
[5] = biological target: HLA-DR13 (DRB1*1301) (human); experiment: competition binding; conditions: chains peptide; modification not given
[6] = biological target: HLA-DRB4 (DRB4*0101) (human); experiment: competition binding; conditions: chains peptide; modification not given
[7] = biological target: HLA-DR1 (DRB1*0101) (human); experiment: competition binding; conditions: chains peptide; modification not given
[8] = biological target: T1, HLA-DP401 (DPB1*0401) (human), P20036; experiment: competition binding; conditions: chains peptide; modification not given
T1 chain 1: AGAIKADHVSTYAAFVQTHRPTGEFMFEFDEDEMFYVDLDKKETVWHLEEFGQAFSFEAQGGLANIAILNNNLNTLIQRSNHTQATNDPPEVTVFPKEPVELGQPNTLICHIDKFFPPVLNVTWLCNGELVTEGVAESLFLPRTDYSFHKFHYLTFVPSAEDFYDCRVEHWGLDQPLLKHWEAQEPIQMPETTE
T1 chain 2: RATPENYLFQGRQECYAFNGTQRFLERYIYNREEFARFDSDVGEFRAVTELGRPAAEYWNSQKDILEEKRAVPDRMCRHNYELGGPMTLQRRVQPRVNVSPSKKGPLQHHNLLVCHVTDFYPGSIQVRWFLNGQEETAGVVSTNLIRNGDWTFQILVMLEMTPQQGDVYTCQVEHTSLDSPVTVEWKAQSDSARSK

[9] = biological target: HLA-DP402 (DPB1*0402) (human), P20036; experiment: competition binding; conditions: chains peptide; modification not given
[10] = biological target: HLA-DR11 (DRB1*1101) (human); experiment: competition binding; conditions: chains peptide; modification not given
[11] = biological target: HLA-DR7 (DRB1*0701) (human); experiment: competition binding; conditions: chains peptide; modification not given
[12] = biological target: T2, HLA-DR3 (DRB1*0301) (human); experiment: competition ELISA, purified HLA II; tracer biotinylated MT 2-16
T2 chain 1: not shown
T2 chain 2: not shown

[13] = biological target: T3, HLA-DRB4 (DRB4*0101) (human); experiment: competition ELISA, purified HLA II; tracer biotinylated E2/E168
T3 chain 1: not shown
T3 chain 2: not shown

[14] = biological target: T4, HLA-DR4 (DRB1*0401) (human); experiment: competition ELISA, purified HLA II; tracer biotinylated HA 306-318
T4 chain 1: not shown
T4 chain 2: not shown

[15] = biological target: T5, HLA-DR1 (DRB1*0101) (human); experiment: as above
T5 chain 1: not shown
T5 chain 2: not shown

[16] = biological target: T6, HLA-DR11 (DRB1*1101) (human); experiment: as above
T6 chain 1: not shown
T6 chain 2: not shown

[17] = biological target: T7, HLA-DRB5 (DRB5*0101) (human); experiment: as above
T7 chain 1: not shown
T7 chain 2: not shown

[18] = biological target: T8, HLA-DR15 (DRB1*1501) (human); experiment: competition ELISA, purified HLA II; tracer biotinylated A3 152-166
T8 chain 1: not shown
T8 chain 2: not shown

[19] = biological target: HLA-DRB5 (DRB5*0101) (human); experiment: competition binding; conditions: chains peptide; modification not given
[20] = biological target: T9, HLA-DR7 (DRB1*0701) (human); experiment: competition ELISA, purified HLA II; tracer biotinylated YKL
T9 chain 1: not shown
T9 chain 2: not shown

[21] = biological target: T10, HLA-DR13 (DRB1*1301) (human); experiment: competition ELISA, purified HLA II; unlabeled peptide against its own biotinylated tracer
T10 chain 1: not shown
T10 chain 2: not shown

Binder: DPNIRTGVRTITTGSPITYSTYGKFLADGG [19N 1275-1304]
- IC50 [1]: 500 nM
- IC50 [2]: 550 nM
- IC50 [3]: 150 nM
- IC50 [4]: > 100000 nM
- IC50 [5]: > 100000 nM
- IC50 [6]: 3500 nM
- IC50 [7]: 150 nM

Binder: AAKLVALGINAVAYYRGLDVSVIPTSGDV [24N 1404-1432]
- IC50 [8]: 32700 nM
- IC50 [9]: 7040 nM

Binder: KNQVEGEVQIVSTAAQTFLAT [10N 1052-1072]
- IC50 [10]: 200 nM
- IC50 [3]: 10000 nM
- IC50 [11]: 7 nM
- IC50 [6]: 400 nM
- IC50 [7]: 400 nM

Binder: VGGVYLLPRRGPRLGVRATRKTSERSQ [2C 31-57]
- IC50 [8]: > 100000 nM
- IC50 [9]: > 100000 nM

Binder: GCIITSLTGRDKNQV (modifications not checked) [9N 1041-1055]
- IC50 [12]: 62500 nM
- IC50 [13]: 65000 nM
- IC50 [14]: 2900 nM
- IC50 [15]: 190 nM
- IC50 [16]: 2600 nM
- IC50 [17]: 11 nM
- IC50 [18]: 525 nM

Binder: GREILLGPADGMVSKGWRLLAPITAYAQQTR [8N 1007-1037]
- IC50 [15]: 2 nM
- IC50 [10]: 1 nM
- IC50 [1]: 10 nM
- IC50 [2]: 30 nM
- IC50 [4]: 200 nM
- IC50 [5]: 1250 nM
- IC50 [6]: 60 nM

Binder: KPGIYRFVAPGERPSGMFD [27N 1495-1513]
- IC50 [8]: > 100000 nM
- IC50 [1]: 1250 nM
- IC50 [9]: > 100000 nM
- IC50 [2]: 150 nM
- IC50 [3]: 40000 nM
- IC50 [4]: > 100000 nM
- IC50 [5]: > 100000 nM
- IC50 [6]: 138 nM
- IC50 [19]: 2 nM
- IC50 [7]: 163 nM

Binder: RSPVFTDNSSPPVVPQSFQVAHLHAPTGSGKSTK [17N 1206-1239]
- IC50 [10]: 550 nM
- IC50 [1]: 425 nM
- IC50 [2]: 10000 nM
- IC50 [5]: > 100000 nM
- IC50 [19]: 350 nM

Binder: SSDLYLVTRHADVIPVRRRGDSRGSLL [13N 1127-1153]
- IC50 [8]: > 100000 nM
- IC50 [10]: 17 nM
- IC50 [1]: 3500 nM
- IC50 [3]: > 10000 nM
- IC50 [11]: 17 nM
- IC50 [4]: > 100000 nM
- IC50 [5]: 300 nM
- IC50 [19]: 500 nM
- IC50 [7]: 700 nM

Binder: TRGLLGCIITSLTGRDKNQV (modifications not checked) [9N 1036-1055, P26664 1036-1055]
- IC50 [20]: 2600 nM
- IC50 [13]: 1000 nM
- IC50 [14]: 950 nM
- IC50 [15]: 51 nM
- IC50 [16]: 700 nM
- IC50 [17]: 53 nM
- IC50 [18]: 5500 nM

Binder: IEEVALSTTGEIPFYGKAIPLEVIKG [22N 1362-1387]
- IC50 [7]: 33 nM

Binder: DAHFLSQTKQSGENL (modifications not checked) [29N 1569-1583]
- IC50 [20]: 3000 nM
- IC50 [14]: 10500 nM
- IC50 [15]: 950 nM
- IC50 [16]: 22 nM
- IC50 [17]: 21000 nM
- IC50 [18]: 2800 nM

Binder: WAGWLLSPRGSRPSW (modifications not checked) [3C 93-107]
- IC50 [15]: 6330 nM

Binder: PQDVKFPGGGQIVGGVYLLPRRGPRLGVR [1C 19-47]
- IC50 [10]: 58 nM
- IC50 [1]: 70000 nM
- IC50 [3]: > 100000 nM
- IC50 [4]: > 100000 nM
- IC50 [6]: 6000 nM
- IC50 [19]: 9 nM
- IC50 [7]: 350 nM

Binder: AQGYKVLVLNPSVAATLGFGAYMSKAHGID [18N 1246-1275]
- IC50 [8]: > 100000 nM
- IC50 [10]: 40 nM
- IC50 [1]: 5 nM
- IC50 [2]: 58 nM
- IC50 [3]: > 30000 nM
- IC50 [5]: 900 nM
- IC50 [19]: 1250 nM
- IC50 [7]: 1 nM

Binder: GHAVGIFRAAVCTRGVAKAVDF [15N 1174-1195]
- IC50 [8]: 17800 nM

Binder: TERVRLVTRHIYNREE (not fully specified) [B1 21-36 (nonbiotinylated)]
- IC50 [21]: 330 nM
